In US20240108738A1, “BICYCLIC PEPTIDE LIGANDS SPECIFIC FOR NK CELLS” (Bicycle Tx Limited, priority 2021, published 2024):

Target: human CD16a F176 variant, biotinylated (human) (UniProt P08637)
Assay: AlphaScreen competition: 10 nM C-terminally biotinylated CD16a F176, mouse IgG2a-conjugated acceptor beads as competed ligand

Sequence of human CD16a F176 variant, biotinylated (human) (P08637 17-208 limits assumed, change not shown): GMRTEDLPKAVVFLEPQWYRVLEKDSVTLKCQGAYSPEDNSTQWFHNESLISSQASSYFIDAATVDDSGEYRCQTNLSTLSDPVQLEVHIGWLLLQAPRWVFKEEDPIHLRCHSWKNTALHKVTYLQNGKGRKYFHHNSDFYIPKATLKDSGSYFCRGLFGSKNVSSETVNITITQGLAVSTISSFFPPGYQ

IgG positive control (antibody)
IC50 (read off the curve): 50 nM
